Test results: IntAct's records for PubMed 26160948

B1: Insulin-induced gene 2 protein (Homo sapiens), Q9Y5U4 (parent)
chain: MAEGETESPGPKKCGPYISSVTSQSVNLMIRGVVLFFIGVFLALVLNLLQIQRNVTLFPPDVIASIFSSAWWVPPCCGTASAVIGLLYPCIDRHLGEPHKFKREWSSVMRCVAVFVGINHASAKVDFDNNIQLSLTLAALSIGLWWTFDRSRSGFGLGVGIAFLATVVTQLLVYNGVYQYTSPDFLYVRSWLPCIFFAGGITMGNIGRQLAMYECKVIAEKSHQE
partner: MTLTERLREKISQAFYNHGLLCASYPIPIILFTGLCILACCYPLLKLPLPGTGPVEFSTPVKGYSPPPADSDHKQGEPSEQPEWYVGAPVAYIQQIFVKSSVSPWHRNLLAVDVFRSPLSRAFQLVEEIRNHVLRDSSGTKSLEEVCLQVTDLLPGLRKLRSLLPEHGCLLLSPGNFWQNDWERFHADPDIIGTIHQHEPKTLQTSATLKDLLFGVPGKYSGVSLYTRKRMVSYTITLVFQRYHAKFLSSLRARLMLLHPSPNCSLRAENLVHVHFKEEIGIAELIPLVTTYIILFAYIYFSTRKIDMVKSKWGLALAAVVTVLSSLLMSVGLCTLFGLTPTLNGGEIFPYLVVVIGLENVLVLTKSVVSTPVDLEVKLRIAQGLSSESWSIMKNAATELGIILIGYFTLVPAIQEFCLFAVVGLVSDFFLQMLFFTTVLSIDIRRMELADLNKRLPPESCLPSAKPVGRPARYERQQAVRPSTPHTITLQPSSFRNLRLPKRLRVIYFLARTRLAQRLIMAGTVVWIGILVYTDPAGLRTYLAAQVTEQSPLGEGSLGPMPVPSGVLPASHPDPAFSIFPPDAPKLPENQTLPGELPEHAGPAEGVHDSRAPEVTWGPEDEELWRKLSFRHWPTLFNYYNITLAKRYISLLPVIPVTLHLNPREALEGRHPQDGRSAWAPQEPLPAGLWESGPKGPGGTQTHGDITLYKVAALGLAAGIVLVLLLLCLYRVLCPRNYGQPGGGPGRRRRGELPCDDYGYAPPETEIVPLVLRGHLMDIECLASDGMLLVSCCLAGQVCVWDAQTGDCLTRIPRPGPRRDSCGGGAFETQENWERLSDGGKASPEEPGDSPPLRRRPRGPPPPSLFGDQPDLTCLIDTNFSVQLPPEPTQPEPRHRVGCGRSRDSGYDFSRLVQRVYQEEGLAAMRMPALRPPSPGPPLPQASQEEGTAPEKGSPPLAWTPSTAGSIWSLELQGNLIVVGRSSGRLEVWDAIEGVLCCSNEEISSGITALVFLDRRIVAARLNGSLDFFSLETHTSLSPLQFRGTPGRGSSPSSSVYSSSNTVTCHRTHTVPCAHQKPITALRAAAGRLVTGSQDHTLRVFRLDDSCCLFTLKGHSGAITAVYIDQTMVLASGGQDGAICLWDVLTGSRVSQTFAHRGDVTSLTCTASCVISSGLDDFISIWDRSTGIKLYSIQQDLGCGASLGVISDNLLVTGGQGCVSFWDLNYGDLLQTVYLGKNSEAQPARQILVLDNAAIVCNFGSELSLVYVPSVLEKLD

Variants of: B1
Conditions: with scap_mouse Scap
For H120F, the “effect of a mutation on the interaction” value was “disrupting interaction strength”.
With G39F the “effect of a mutation on the interaction” value was “decreasing interaction strength”.
With M203W the “effect of a mutation on the interaction” value was “decreasing interaction strength”.
D149A was tested, and the “effect of a mutation on the interaction” value was “disrupting interaction strength”.
With N47A;Q50F;N119F the “effect of a mutation on the interaction” value was “decreasing interaction strength”.
In the case of F115A, the “effect of a mutation on the interaction” value is reported as “disrupting interaction strength”.
With C77D the “effect of a mutation on the interaction” value was “decreasing interaction strength”.
For A113W, the “effect of a mutation on the interaction” value was “disrupting interaction strength”.
With Q132A the “effect of a mutation on the interaction” value was “decreasing interaction strength”.
In the case of W145A, the “effect of a mutation on the interaction” value is reported as “disrupting interaction strength”.
With G117F the “effect of a mutation on the interaction” value was “decreasing interaction strength”.
With G200F the “effect of a mutation on the interaction” value was “decreasing interaction strength”.
